Measured values reported in patent publication US20130004981A1, “SYSTEM AND METHOD FOR SELECTING MOLECULE INTERACTING WITH PROTEIN PHOSPHATASE” (priority 2011, published 2013).

Tests used:
[1] = target: T1, PP2A subunits B56γ3, Aα and Cα (Homo sapiens, UniProt P30153+P67775); experiment: BiFC-based FRET fluorescence of PP2A holoenzyme assembly (YFPN-B56γ3+YFPC-Aα+CFP-Cα) in transfected NIH3T3 cells; format: cell-based; conditions: NIH3T3 cells co-transfected with YFPN-B56γ3+YFPC-Aα+CFP-Cα plus test plasmid; FIG. 3
T1 construct: HA; Flag; expressed in transfected cells; host or cells: NIH3T3 (mouse embryonic fibroblast cell line)
T1 sequence (P30153 whole entry): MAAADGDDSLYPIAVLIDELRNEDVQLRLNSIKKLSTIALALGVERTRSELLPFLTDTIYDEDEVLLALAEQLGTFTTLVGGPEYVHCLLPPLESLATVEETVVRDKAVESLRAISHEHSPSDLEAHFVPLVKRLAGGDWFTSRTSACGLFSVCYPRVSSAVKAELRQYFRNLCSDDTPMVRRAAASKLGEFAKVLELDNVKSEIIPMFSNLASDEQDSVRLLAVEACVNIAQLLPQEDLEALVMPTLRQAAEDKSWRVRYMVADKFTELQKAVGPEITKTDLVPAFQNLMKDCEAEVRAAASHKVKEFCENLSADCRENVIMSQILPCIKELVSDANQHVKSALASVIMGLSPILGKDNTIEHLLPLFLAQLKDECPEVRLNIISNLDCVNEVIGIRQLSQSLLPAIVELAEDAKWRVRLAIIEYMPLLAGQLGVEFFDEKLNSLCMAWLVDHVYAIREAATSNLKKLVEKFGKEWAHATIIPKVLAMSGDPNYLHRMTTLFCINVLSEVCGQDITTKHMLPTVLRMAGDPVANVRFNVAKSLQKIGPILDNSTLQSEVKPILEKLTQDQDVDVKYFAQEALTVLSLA
T1 sequence (P67775 whole entry): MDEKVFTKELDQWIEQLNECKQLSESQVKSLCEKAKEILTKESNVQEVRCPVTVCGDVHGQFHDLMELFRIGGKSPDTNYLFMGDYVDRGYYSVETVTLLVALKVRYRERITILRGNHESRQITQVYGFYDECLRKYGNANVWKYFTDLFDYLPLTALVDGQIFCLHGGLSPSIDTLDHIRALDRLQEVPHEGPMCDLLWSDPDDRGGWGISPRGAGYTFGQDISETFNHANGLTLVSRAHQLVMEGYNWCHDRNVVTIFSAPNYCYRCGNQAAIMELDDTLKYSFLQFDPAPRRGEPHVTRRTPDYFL
Method: (§1) In the following embodiments of the present invention, NIH3T3 cells (mouse embryonic fibroblast cell line) was used, which was cultured in Dulbecco's modified Eagle's medium (DMEM) supplemented with 10% bovine serum (BS), 1% Penicillin (10 U/μl)/Streptomycin (10 μg/μl), and 1% L-Glutamine (200 mM). All of the reagents were available from GIBCO.
(§2) NIH3T3 cells were seeded into proper dishes one day before transfection. For example, 7×10^4 cells were seeded in each well of a 24-well plate; 10^6 cells were seeded in a 6 cm dish; and 3×10^6 cells were seeded in a 10 cm dish. […]
(§3) After 24 hrs, cells were washed with PBS buffer three times and fixed by 4% paraformaldehyde/0.025% glutaraldehyde for 15 ruin. […] The cells were observed by fluorescence microscopy (Zeiss, Axio observer Z1). […]
(§4) In the present embodiment, the plasmids of the following experimental groups were transfected into NIH3T3 cells with the aforementioned transfection process, and the cover glasses used in the present embodiment were prepared with the same process described in Embodiment 1. The cells were observed by fluorescence microscopy (Zeiss, Axio observer Z1), and the fluorescence and fluorescent efficiency generated from cells were programmed by Zeiss AxioVision complied with Youvan's method. […]

[2] = target: T2, PP2A subunits Aα, Cα and B55β2 (Homo sapiens, UniProt P30153+P67775); experiment: BiFC-based FRET fluorescence of PP2A holoenzyme assembly (YFPN-Aα+Cα-YFPC+B55β2-CFP) in transfected NIH3T3 cells; format: cell-based; conditions: NIH3T3 cells co-transfected with YFPN-Aα+Cα-YFPC+B55β2-CFP plus test plasmid; FIG. 4
T2 construct: FLAG; HA (N); Flag; expressed in transfected cells; host or cells: NIH3T3 (mouse embryonic fibroblast cell line)
T2 sequence (P30153 whole entry): as the sequence (P30153 whole entry) above
T2 sequence (P67775 whole entry): as the sequence (P67775 whole entry) above
Method: as §1, §2, §3, §4

B1: ST: small T (SV40 small T antigen) expressed from pCMV5; may influence the association between the scaffold subunit and the regulatory subunit (protein, UniProt P03081 1-174, looked up)
Small t antigen: MDKVLNREESLQLMDLLGLERSAWGNIPLMRKAYLKKCKEFHPDKGGDEEKMKKMNTLYKKMEDGVKYAHQPDFGGFWDATEVFASSLNPGVDAMYCKQWPECAKKMSANCICLLCLLRMKHENRKLYRKDPLVWVDCYCFDCFRMWFGLDLCEGTLLLWCDIIGQTTYRDLKL
[1]
  fluorescence generated from cells (association between subunits A and B): did not generate any fluorescence
[2]
  fluorescence and efficiency generated from cells (association between subunits A and B): only generated weak fluorescence and efficiency
